Results published in the supplement of paper PMC10567573.

B1: KCNA3 (parent)
chain: GERVVINISGLRFETQLKTLCQFP
B2: TRAF3IP2 (parent)
chain: PGQPLPGASVRGLHPVQKVILNYP

Variants of: B1
Assay: protein stability index of a GFP-peptide fusion (GPS, HEK-293T) (PSI 1-6); higher = more stable
Settings: c terminus: a fixed tail appended
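Further: lentivirally expressed fusions sorted by FACS into six bins by GFP to DsRed ratio, PSI derived from sequencing read proportions per bin multiplied by bin number.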

Variant	protein stability index
GERVVINISGLRFETQLKTSCQFP [L20S]	2.34
GERVVINISGLRFETQLKTLDQFP [C21D]	2.14
GERVVINISGLRFETQLKTLFQFP [C21F]	2.95
GERVVINISGLRFETQLKTLGQFP [C21G]	1
GERVVINISGLRFETQLKTLHQFP [C21H]	1.91
GERVVINISGLRFETQLKTLIQFP [C21I]	3.26
GERVVINISGLRFETQLKTLMQFP [C21M]	1.12
GERVVINISGLRFETQLKTLNQFP [C21N]	1.37
GERVVINISGLRFETQLKTLPQFP [C21P]	3.67
GERVVINISGLRFETQLKTLQQFP [C21Q]	2.57
GERVVINISGLRFETQLKTLRQFP [C21R]	3.08
GERVVINISGLRFETQLKTLTQFP [C21T]	2.68
GERVVINISGLRFETQLKTLVQFP [C21V]	1.81
GERVVINISGLRFETQLKTLCAFP [Q22A]	1.9
GERVVINISGLRFETQLKTLCCFP [Q22C]	4.8
GERVVINISGLRFETQLKTLCDFP [Q22D]	3.65
GERVVINISGLRFETQLKTLCEFP [Q22E]	2.39
GERVVINISGLRFETQLKTLCGFP [Q22G]	2.94
GERVVINISGLRFETQLKTLCHFP [Q22H]	2.26
GERVVINISGLRFETQLKTLCLFP [Q22L]	1.84
GERVVINISGLRFETQLKTLCMFP [Q22M]	3.99
GERVVINISGLRFETQLKTLCNFP [Q22N]	2.1
GERVVINISGLRFETQLKTLCTFP [Q22T]	2.59
GERVVINISGLRFETQLKTLCQAP [F23A]	2.41

Variant	protein stability index
GERVVINISGLRFETQLKTLCQCP [F23C]	3.65
GERVVINISGLRFETQLKTLCQDP [F23D]	2.25
GERVVINISGLRFETQLKTLCQEP [F23E]	2.2
GERVVINISGLRFETQLKTLCQHP [F23H]	3.14
GERVVINISGLRFETQLKTLCQIP [F23I]	2.48
GERVVINISGLRFETQLKTLCQKP [F23K]	1.59
GERVVINISGLRFETQLKTLCQLP [F23L]	1.95
GERVVINISGLRFETQLKTLCQNP [F23N]	1.52
GERVVINISGLRFETQLKTLCQQP [F23Q]	1.94
GERVVINISGLRFETQLKTLCQRP [F23R]	1.92
GERVVINISGLRFETQLKTLCQSP [F23S]	2.88
GERVVINISGLRFETQLKTLCQTP [F23T]	1.36
GERVVINISGLRFETQLKTLCQFA [P24A]	2.47
GERVVINISGLRFETQLKTLCQFC [P24C]	2.4
GERVVINISGLRFETQLKTLCQFE [P24E]	4.68
GERVVINISGLRFETQLKTLCQFF [P24F]	3.52
GERVVINISGLRFETQLKTLCQFG [P24G]	2.75
GERVVINISGLRFETQLKTLCQFI [P24I]	2
GERVVINISGLRFETQLKTLCQFK [P24K]	1.44
GERVVINISGLRFETQLKTLCQFL [P24L]	2.2
GERVVINISGLRFETQLKTLCQFN [P24N]	3.07
GERVVINISGLRFETQLKTLCQFV [P24V]	1.04
GERVVINISGLRFETQLKTLCQFW [P24W]	1.69
GERVVINISGLRFETQLKTLCQFY [P24Y]	2.26

Variants of: B2
Assay: as above
Settings: c terminus: a fixed tail appended

Variant	protein stability index
CGQPLPGASVRGLHPVQKVILNYP [P1C]	1.73
DGQPLPGASVRGLHPVQKVILNYP [P1D]	2.97
EGQPLPGASVRGLHPVQKVILNYP [P1E]	3.31
FGQPLPGASVRGLHPVQKVILNYP [P1F]	3
GGQPLPGASVRGLHPVQKVILNYP [P1G]	2.86
HGQPLPGASVRGLHPVQKVILNYP [P1H]	3.31
IGQPLPGASVRGLHPVQKVILNYP [P1I]	2.99
KGQPLPGASVRGLHPVQKVILNYP [P1K]	3.02
LGQPLPGASVRGLHPVQKVILNYP [P1L]	2.78
MGQPLPGASVRGLHPVQKVILNYP [P1M]	3
NGQPLPGASVRGLHPVQKVILNYP [P1N]	3.63
QGQPLPGASVRGLHPVQKVILNYP [P1Q]	3.47
SGQPLPGASVRGLHPVQKVILNYP [P1S]	2.62
TGQPLPGASVRGLHPVQKVILNYP [P1T]	2.65
VGQPLPGASVRGLHPVQKVILNYP [P1V]	3.25
WGQPLPGASVRGLHPVQKVILNYP [P1W]	2.45
YGQPLPGASVRGLHPVQKVILNYP [P1Y]	2.49
PAQPLPGASVRGLHPVQKVILNYP [G2A]	2.89
PCQPLPGASVRGLHPVQKVILNYP [G2C]	2.22
PDQPLPGASVRGLHPVQKVILNYP [G2D]	4.21
PEQPLPGASVRGLHPVQKVILNYP [G2E]	3.79
PFQPLPGASVRGLHPVQKVILNYP [G2F]	2.92
PHQPLPGASVRGLHPVQKVILNYP [G2H]	2.06

Variant	protein stability index
PIQPLPGASVRGLHPVQKVILNYP [G2I]	2.62
PKQPLPGASVRGLHPVQKVILNYP [G2K]	2.58
PLQPLPGASVRGLHPVQKVILNYP [G2L]	2.23
PMQPLPGASVRGLHPVQKVILNYP [G2M]	2.44
PNQPLPGASVRGLHPVQKVILNYP [G2N]	2.65
PPQPLPGASVRGLHPVQKVILNYP [G2P]	3.35
PQQPLPGASVRGLHPVQKVILNYP [G2Q]	2.85
PRQPLPGASVRGLHPVQKVILNYP [G2R]	3.39
PSQPLPGASVRGLHPVQKVILNYP [G2S]	2.81
PTQPLPGASVRGLHPVQKVILNYP [G2T]	3.21
PVQPLPGASVRGLHPVQKVILNYP [G2V]	3.21
PWQPLPGASVRGLHPVQKVILNYP [G2W]	2.15
PGAPLPGASVRGLHPVQKVILNYP [Q3A]	3.28
PGCPLPGASVRGLHPVQKVILNYP [Q3C]	2.71
PGDPLPGASVRGLHPVQKVILNYP [Q3D]	3.15
PGEPLPGASVRGLHPVQKVILNYP [Q3E]	3.65
PGFPLPGASVRGLHPVQKVILNYP [Q3F]	2.42
PGGPLPGASVRGLHPVQKVILNYP [Q3G]	4.09
PGHPLPGASVRGLHPVQKVILNYP [Q3H]	2.72
PGIPLPGASVRGLHPVQKVILNYP [Q3I]	2.88
PGKPLPGASVRGLHPVQKVILNYP [Q3K]	3.09
PGLPLPGASVRGLHPVQKVILNYP [Q3L]	2.96
PGMPLPGASVRGLHPVQKVILNYP [Q3M]	3.34
